Results on one substance are retold here after article PMC9409550.

As usually defined, the pKd is the Kd on a negative log10 scale, so that one unit is a factor of ten. A lower pKd goes with a high Kd.

Test in all cases: flow cytometry on cells
Background: In flow cytometry, cells or beads pass a laser one at a time.

For test [1], the target named is BANAL-103 RBD, yeast-displayed (bat sarbecovirus BANAL-103).
Test [2] concerns the target Khosta-2 RBD, yeast-displayed (bat sarbecovirus Khosta-2).
Test [3] deals with WIV16 RBD, yeast-displayed (bat sarbecovirus WIV16).
Test [4] concerns the target Rs4874 RBD, yeast-displayed (bat sarbecovirus Rs4874).
Test [5] deals with BANAL-236 RBD, yeast-displayed (bat sarbecovirus BANAL-236).

pKd: −log10 of the molar value.

CDY14HL-Fc1, sequence (Q9BYF1 18-615): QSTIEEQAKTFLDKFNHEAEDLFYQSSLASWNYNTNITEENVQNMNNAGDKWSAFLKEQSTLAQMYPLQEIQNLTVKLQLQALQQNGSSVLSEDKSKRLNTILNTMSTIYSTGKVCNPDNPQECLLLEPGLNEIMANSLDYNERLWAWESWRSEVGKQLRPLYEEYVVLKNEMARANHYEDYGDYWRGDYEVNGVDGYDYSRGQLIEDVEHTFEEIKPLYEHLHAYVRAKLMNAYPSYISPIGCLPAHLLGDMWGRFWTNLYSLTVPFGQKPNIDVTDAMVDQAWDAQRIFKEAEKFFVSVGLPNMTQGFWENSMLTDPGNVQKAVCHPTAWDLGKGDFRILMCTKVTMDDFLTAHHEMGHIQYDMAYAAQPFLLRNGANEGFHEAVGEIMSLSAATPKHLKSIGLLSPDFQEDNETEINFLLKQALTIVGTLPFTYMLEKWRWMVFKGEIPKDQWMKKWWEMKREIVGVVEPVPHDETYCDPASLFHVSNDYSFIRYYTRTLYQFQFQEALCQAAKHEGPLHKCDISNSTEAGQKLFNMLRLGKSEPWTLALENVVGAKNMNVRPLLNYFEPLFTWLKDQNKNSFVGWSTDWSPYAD

On to “CDY14HL-Fc1 (from UniProt Q9BYF1 18-615) (Fc fusion)”, for which the pKd in test [1] was 9.52; in test [2] it was 8.72; in test [3], 9.62; in test [4] it was 9.64; in test [5], 9.62.
